Test in all cases: fluorescence polarization
For orientation: Fluorescence polarisation rises when a labelled molecule tumbles more slowly, as on binding a larger partner.

In experiment [1] the target is VEGFR1-pY1213mod.
Experiment [2] addresses TRAF7-pY275mod.
For experiment [3], the target named is RSKL-pY423.
The target of experiment [4] is EGFR-pY1110.
The target in experiment [5] is SIG11-pY668.
For experiment [6], the target named is EGFR-pY978.
Experiment [7] concerns the target MidT-pY324.

Where a chain is given by its changes, count along the chain named. In names and notes the source's numbering stands.

In general, Kd refers to the free concentration of one partner at which half of the binding sites on the other are occupied at equilibrium, for simple one-to-one binding. Low readings indicate higher affinity, high ones lower affinity.

B1: S10A (designed binder)
chain: MKIEEHHHHHHSSGRENLYFQGGAAQPAAPVDSIQAEEWYFGKLGRKDAERQLLSFGNPRGTFLIRESETTKGAYALSIRDWDDMKGDHVKHYKIRKLDNGGYYITTRAQFETLQQLVQHYSERAAGLSSRLVVPSHKGAAA
In the case of B1, the Kd worked out at 5800 nM in experiment [1]; 1300 nM in experiment [2]; 2500 nM in experiment [3]; 13000 nM in experiment [4]; 48 nM in experiment [5]; 1100 nM in experiment [6]. In experiment [7], the Kd turned out to be 120 nM.

B2: T8V S10A K15I (designed binder)
chain: B1 chain with T71V, K94I
As for B2, the Kd in experiment [1] was determined as 410 nM; in experiment [2] it was 450 nM; in experiment [3], 880 nM; in experiment [4], 1400 nM; in experiment [5], 190 nM; in experiment [6] it was 130 nM. Further, in experiment [7], binding was characterised by a dissociation constant (Kd) of 98 nM.

B3: T8V S10A K15L (designed binder)
chain: B1 chain with T71V, K94L
On to B3, for which the Kd came out at 58 nM in experiment [1]; 60 nM in experiment [2]; 77 nM in experiment [3]; 340 nM in experiment [4]; 26 nM in experiment [5]; 8.5 nM in experiment [6]. In experiment [7], binding was characterised by a dissociation constant (Kd) of 11 nM.

B4: S10V (designed binder)
chain: B1 chain with A76V
On to B4, for which the Kd in experiment [1] is 9000 nM; in experiment [2], 4500 nM; in experiment [3], 6500 nM; in experiment [4] it was 34000 nM; in experiment [5], 660 nM; in experiment [6] it was 5500 nM. The molecule further yielded a Kd in experiment [7] of 360 nM.

B5: K2E T8V S10A K15I (designed binder)
chain: B1 chain with K47E, T71V, K94I
In the case of B5, the Kd was 580 nM in experiment [1]; 990 nM in experiment [2]; 2500 nM in experiment [3]; 3800 nM in experiment [4]; 900 nM in experiment [5]; 170 nM in experiment [6]. Further, the Kd in experiment [7] is 280 nM.

B6: T8I S10A K15L (designed binder)
chain: B1 chain with T71I, K94L
As for B6, the Kd turned out to be 180 nM in experiment [1]; 330 nM in experiment [2]; 190 nM in experiment [3]; 700 nM in experiment [4]; 120 nM in experiment [5]; 32 nM in experiment [6]. The molecule also registered a Kd in experiment [7] of 43 nM.

B7: T7S S10A K15L (designed binder)
chain: B1 chain with T70S, K94L
Consider B7, for which the Kd was found to be 640 nM in experiment [1]; 300 nM in experiment [2]; 1500 nM in experiment [3]; 1600 nM in experiment [4]; 71 nM in experiment [5]; 210 nM in experiment [6]. The molecule also registered a Kd in experiment [7] of 49 nM.

B8: K15L (designed binder)
chain: B1 chain with A76S, K94L
As for B8, the Kd is 2800 nM in experiment [1]; 2200 nM in experiment [2]; 3300 nM in experiment [3]; 5800 nM in experiment [4]; 450 nM in experiment [5]; 670 nM in experiment [6]. Also, the Kd in experiment [7] stood at 420 nM.

B9: none (wild-type) (other)
chain: B1 chain with A76S
Turning to B9, the Kd was 6000 nM in experiment [2]; 12000 nM in experiment [3]; 26000 nM in experiment [4]; 430 nM in experiment [5]; 490 nM in experiment [7].

B10: ΔT8 S10A K15L (designed binder)
chain: B1 chain with A76S
On to B10, for which the Kd is 2700 nM in experiment [2]; 6100 nM in experiment [3]; 15000 nM in experiment [4]; 550 nM in experiment [5]; 260 nM in experiment [7].

B11: S10A K15L (designed binder)
chain: B1 chain with K94L
B11: the Kd in experiment [1] worked out at 400 nM; in experiment [2], 480 nM; in experiment [3] it was 1600 nM; in experiment [4], 2000 nM; in experiment [5], 120 nM; in experiment [6], 130 nM. The molecule further had a Kd in experiment [7] of 110 nM.

B12: T8V K15L (designed binder)
chain: B1 chain with T71V, A76S, K94L
For B12, the Kd in experiment [1] is 440 nM; in experiment [2], 450 nM; in experiment [3] it was 530 nM; in experiment [4], 1700 nM; in experiment [5], 150 nM; in experiment [6], 120 nM. This molecule came in with a Kd in experiment [7] of 140 nM.

B13: S10V K15L (designed binder)
chain: B1 chain with A76V, K94L
For the molecule B13, the Kd in experiment [1] came to 1600 nM; in experiment [2], 2100 nM; in experiment [3], 1500 nM; in experiment [4], 4400 nM; in experiment [5] it was 320 nM; in experiment [6], 430 nM. Further, binding in experiment [7] was characterised by a dissociation constant (Kd) of 94 nM.

B14: T8V (designed binder)
chain: B1 chain with T71V, A76S
For B14, the Kd came to 24000 nM in experiment [1]; 5800 nM in experiment [2]; 14000 nM in experiment [3]; 41000 nM in experiment [4]; 1200 nM in experiment [5]; 2400 nM in experiment [6]. The Kd in experiment [7] came out at 370 nM.
